In US11352401:

Target: T1, HLA-B*07 (human)
T1 construct: MHC monomer made peptide-receptive by UV cleavage of a UV-sensitive ligand; also called peptide-receptive MHC class I monomer
Assay: UV peptide-exchange ELISA; +++ = yield >50%

| peptide exchange yield [%] | Binder |
| --- | --- |
| 50 to 75 | VPLPAGGGTV [VPLPAGGGTV (SEQ ID NO: 229)] |
| 50 to 75 | YPQHPGLNA [YPQHPGLNA (SEQ ID NO: 260)] |
| 50 to 75 | MPLPWSLALP [MPLPWSLALP (SEQ ID NO: 271)] |
| 50 to 75 | APHPPLSVV [APHPPLSVV (SEQ ID NO: 275)] |
| 50 to 75 | SPARASPAL [SPARASPAL (SEQ ID NO: 279)] |
| 50 to 75 | APSARVGVC [APSARVGVC (SEQ ID NO: 261)] |
| 50 to 75 | SPQRLRGLLL [SPQRLRGLLL (SEQ ID NO: 292)] |
| 50 to 75 | RIREHVPQL [RIREHVPQL (SEQ ID NO: 245)] |
| 50 to 75 | TPYQEHVAL [TPYQEHVAL (SEQ ID NO: 274)] |
| 50 to 75 | RPAATAVISL [RPAATAVISL (SEQ ID NO: 237)] |
| 50 to 75 | LPRAGGAFL [LPRAGGAFL (SEQ ID NO: 276)] |
| 50 to 75 | RALLARLLL [RALLARLLL (SEQ ID NO: 247)] |
| 50 to 75 | MPQIETRVIL [MPQIETRVIL (SEQ ID NO: 282)] |
| 50 to 75 | RVIDAVRFTL [RVIDAVRFTL (SEQ ID NO: 253)] |
| 50 to 75 | VPISEEGTPVL [VPISEEGTPVL (SEQ ID NO: 280)] |
| 50 to 75 | APREEQQRSL [APREEQQRSL (SEQ ID NO: 287)] |
| 50 to 75 | RPMQQARAQL [RPMQQARAQL (SEQ ID NO: 459)] |
| 50 to 75 | VPLPAGGGTVL [VPLPAGGGTVL (SEQ ID NO: 230)] |
| 50 to 75 | NPFYPEVEL [NPFYPEVEL (SEQ ID NO: 222)] |

Target: T2, HLA-B*44 (human)
T2 construct: MHC monomer made peptide-receptive by UV cleavage of a UV-sensitive ligand; also called peptide-receptive MHC class I monomer
Assay: UV peptide-exchange ELISA; +++ = yield >50%

| peptide exchange yield [%] | Binder |
| --- | --- |
| 50 to 75 | SEIEDSTKQVF [SEIEDSTKQVF (SEQ ID NO: 485)] |
| 50 to 75 | AEDQLHHSF [AEDQLHHSF (SEQ ID NO: 487)] |
| 50 to 75 | SEDDPILQI [SEDDPILQI (SEQ ID NO: 486)] |

Target: T3, HLA-A*24 (human)
T3 construct: MHC monomer made peptide-receptive by UV cleavage of a UV-sensitive ligand; also called peptide-receptive MHC class I monomer
Assay: UV peptide-exchange ELISA; +++ = yield >50%

| peptide exchange yield [%] | Binder |
| --- | --- |
| 50 to 75 | YYADKKTFIVL [YYADKKTFIVL (SEQ ID NO: 17)] |
| 50 to 75 | SYSSCYSF [SYSSCYSF (SEQ ID NO: 14)] |
| 50 to 75 | VQQWSVAVF [VQQWSVAVF (SEQ ID NO: 7)] |
| 50 to 75 | SYEVRSTF [SYEVRSTF (SEQ ID NO: 21)] |
| 50 to 75 | WYGWHFPEL [WYGWHFPEL (SEQ ID NO: 76)] |
| 50 to 75 | KQMEDGHTLF [KQMEDGHTLF (SEQ ID NO: 36)] |
| 50 to 75 | LLIKLLQTF [LLIKLLQTF (SEQ ID NO: 54)] |
| 50 to 75 | KSSVIASLLF [KSSVIASLLF (SEQ ID NO: 33)] |
| 50 to 75 | TYNPDFSSL [TYNPDFSSL (SEQ ID NO: 16)] |
| 50 to 75 | NYIVPDKQIF [NYIVPDKQIF (SEQ ID NO: 379)] |
| 50 to 75 | NYAENILTL [NYAENILTL (SEQ ID NO: 61)] |
| 50 to 75 | IYHSHHPTL [IYHSHHPTL (SEQ ID NO: 382)] |
| 50 to 75 | QYEPPSAPSTTF [QYEPPSAPSTTF (SEQ ID NO: 40)] |
| 50 to 75 | SYIGLPLTL [SYIGLPLTL (SEQ ID NO: 73)] |
| 50 to 75 | RWLPQKNAAQF [RWLPQKNAAQF (SEQ ID NO: 387)] |
| 50 to 75 | RYKQDVERF [RYKQDVERF (SEQ ID NO: 383)] |
| 50 to 75 | TYLSIFDQL [TYLSIFDQL (SEQ ID NO: 60)] |
| 50 to 75 | VFQEKHHVI [VFQEKHHVI (SEQ ID NO: 380)] |

Target: T4, HLA-A*03 (human)
T4 construct: MHC monomer made peptide-receptive by UV cleavage of a UV-sensitive ligand; also called peptide-receptive MHC class I monomer
Assay: UV peptide-exchange ELISA; ++++ = yield >75%

| peptide exchange yield [%] | Binder |
| --- | --- |
| > 75 | ATSGVPVYK [ATSGVPVYK (SEQ ID NO: 210)] |
| > 75 | RTQIPMSEK [RTQIPMSEK (SEQ ID NO: 209)] |
| > 75 | AINTSIKNK [AINTSIKNK (SEQ ID NO: 453)] |
| > 75 | KVKDTPGLGK [KVKDTPGLGK (SEQ ID NO: 203)] |
| > 75 | RIADIFVKK [RIADIFVKK (SEQ ID NO: 455)] |
| > 75 | RLRSSLVFK [RLRSSLVFK (SEQ ID NO: 219)] |
| > 75 | SINKPTSER [SINKPTSER (SEQ ID NO: 457)] |
| > 75 | RSFNGLLTMY [RSFNGLLTMY (SEQ ID NO: 207)] |
| > 75 | RILNQILYY [RILNQILYY (SEQ ID NO: 217)] |
| > 75 | MMFSGPQILKL [MMFSGPQILKL (SEQ ID NO: 215)] |
| > 75 | GIADFVLKY [GIADFVLKY (SEQ ID NO: 458)] |
| > 75 | SLDGAARPK [SLDGAARPK (SEQ ID NO: 205)] |
| > 75 | AVFDKFIRY [AVFDKFIRY (SEQ ID NO: 204)] |
| > 75 | KLIDLSQVMY [KLIDLSQVMY (SEQ ID NO: 206)] |
| > 75 | TVNPVAIHK [TVNPVAIHK (SEQ ID NO: 211)] |
| > 75 | KAYEQVMHY [KAYEQVMHY (SEQ ID NO: 212)] |
| > 75 | SMFTAILKK [SMFTAILKK (SEQ ID NO: 456)] |
| > 75 | GLASRILDAK [GLASRILDAK (SEQ ID NO: 208)] |
| > 75 | KVYTPSISK [KVYTPSISK (SEQ ID NO: 454)] |
| > 75 | RTMSEAALVRK [RTMSEAALVRK (SEQ ID NO: 214)] |
| > 75 | KLAELEGALQK [KLAELEGALQK (SEQ ID NO: 202)] |

Target: T5, HLA-B*08 (human)
T5 construct: MHC monomer made peptide-receptive by UV cleavage of a UV-sensitive ligand; also called peptide-receptive MHC class I monomer
Assay: UV peptide-exchange ELISA; ++++ = yield >75%

| peptide exchange yield [%] | Binder |
| --- | --- |
| > 75 | LPPKKFVL [LPPKKFVL (SEQ ID NO: 310)] |
| > 75 | ILKVKVGL [ILKVKVGL (SEQ ID NO: 306)] |
| > 75 | MPMQDIKM [MPMQDIKM (SEQ ID NO: 296)] |
| > 75 | ALKLRVAVL [ALKLRVAVL (SEQ ID NO: 305)] |
| > 75 | ELKKLYCQI [ELKKLYCQI (SEQ ID NO: 304)] |
| > 75 | RAQLKLVAL [RAQLKLVAL (SEQ ID NO: 297)] |
| > 75 | MAQFKEISL [MAQFKEISL (SEQ ID NO: 299)] |
| > 75 | ILLPRTVSL [ILLPRTVSL (SEQ ID NO: 307)] |
| > 75 | YMHKLLVL [YMHKLLVL (SEQ ID NO: 301)] |
| > 75 | MLKQKVEEL [MLKQKVEEL (SEQ ID NO: 308)] |
| > 75 | LPFPKFTV [LPFPKFTV (SEQ ID NO: 303)] |
